Key:
[1] = biological target: T1, IL23R, cell-expressed on human T cells (human, UniProt Q5VWK5 24-629); assay: cell-based or functional assay
T1 sequence (looked up): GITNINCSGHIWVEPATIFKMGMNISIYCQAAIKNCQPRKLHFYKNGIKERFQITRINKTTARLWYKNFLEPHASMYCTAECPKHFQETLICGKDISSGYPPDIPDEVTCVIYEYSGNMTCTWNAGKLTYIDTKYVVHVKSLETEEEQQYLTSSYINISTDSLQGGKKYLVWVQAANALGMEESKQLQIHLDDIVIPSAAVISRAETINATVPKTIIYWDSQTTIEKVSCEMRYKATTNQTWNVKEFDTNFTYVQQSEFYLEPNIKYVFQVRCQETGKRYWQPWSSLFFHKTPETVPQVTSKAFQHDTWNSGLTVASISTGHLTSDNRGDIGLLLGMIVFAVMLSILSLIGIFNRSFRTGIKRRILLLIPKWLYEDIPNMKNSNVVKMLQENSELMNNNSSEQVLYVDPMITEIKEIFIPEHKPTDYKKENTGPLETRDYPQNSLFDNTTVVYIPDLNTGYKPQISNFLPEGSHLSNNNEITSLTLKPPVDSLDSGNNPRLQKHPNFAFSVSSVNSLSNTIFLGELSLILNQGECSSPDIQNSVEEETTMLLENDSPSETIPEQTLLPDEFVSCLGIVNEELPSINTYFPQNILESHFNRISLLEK

[2] = biological target: T2, human CD4, cell-expressed (human, UniProt P01730 26-458); assay: FACS, MOLM-13 cells
T2 construct: whole, on cells

[3] = biological target: T3, human CXCR4 (on cells, membrane extracts or viral lipoparticles) (human, UniProt P61073 1-352); assay: ELISA, hCXCR4 VLPs
T3 construct: whole, on cells; see assay; also called hCXCR4 VLPs; CXCR4-VLP

[4] = biological target: CXCR4 and CD4 co-expressed on cells (human, UniProt P61073 1-352; P01730 26-458); assay: cell-based or functional assay
IL12Rβ2-Fc = biological target: T4, IL12Rβ2-Fc (human, UniProt Q99665 24-622); assay: SPR and competition ELISA, against IL12Rb2#1
T4 construct: extracellular domain; bought; also called hIL-12Rβ2-Fc; Fc-fusion of human IL12Rβ2 extracellular domain (R&D Systems #1959-B2)
T4 sequence (looked up): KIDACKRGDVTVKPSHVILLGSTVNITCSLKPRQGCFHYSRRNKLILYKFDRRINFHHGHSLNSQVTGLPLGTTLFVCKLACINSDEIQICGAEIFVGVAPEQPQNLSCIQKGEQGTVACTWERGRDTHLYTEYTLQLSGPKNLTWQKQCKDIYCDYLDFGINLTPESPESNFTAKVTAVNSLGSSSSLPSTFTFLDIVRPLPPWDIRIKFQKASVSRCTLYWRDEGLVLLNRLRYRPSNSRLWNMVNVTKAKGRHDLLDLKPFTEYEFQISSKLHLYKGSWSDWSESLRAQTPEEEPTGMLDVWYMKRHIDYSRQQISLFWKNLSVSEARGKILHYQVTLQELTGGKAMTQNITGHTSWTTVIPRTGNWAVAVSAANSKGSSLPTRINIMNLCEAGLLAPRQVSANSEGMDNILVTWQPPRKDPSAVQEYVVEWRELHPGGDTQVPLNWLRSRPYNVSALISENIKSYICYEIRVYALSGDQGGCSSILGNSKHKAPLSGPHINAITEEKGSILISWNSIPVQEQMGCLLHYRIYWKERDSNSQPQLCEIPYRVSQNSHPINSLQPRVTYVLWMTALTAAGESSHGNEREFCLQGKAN

[5] = biological target: T3, human CXCR4 (on cells, membrane …); assay: cell-based or functional assay
[6] = biological target: T5, recombinant IL-3Rα ectodomain (UniProt P26951 19-305, limits assumed); assay: ELISA, recombinant IL-3Ra
T5 construct: extracellular domain; also called IL-3Ra ectodomain; recombinant IL-3Ra
T5 sequence (looked up): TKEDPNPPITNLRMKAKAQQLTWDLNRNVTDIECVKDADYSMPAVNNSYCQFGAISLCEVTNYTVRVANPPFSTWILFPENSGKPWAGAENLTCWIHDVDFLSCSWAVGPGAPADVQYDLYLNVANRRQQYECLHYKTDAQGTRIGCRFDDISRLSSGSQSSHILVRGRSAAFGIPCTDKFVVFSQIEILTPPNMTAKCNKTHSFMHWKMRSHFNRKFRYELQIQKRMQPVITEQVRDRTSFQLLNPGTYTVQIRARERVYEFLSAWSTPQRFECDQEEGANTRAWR

[7] = biological target: T2, human CD4, cell-expressed; assay: cell-based or functional assay

T3 sequence (P61073 whole entry): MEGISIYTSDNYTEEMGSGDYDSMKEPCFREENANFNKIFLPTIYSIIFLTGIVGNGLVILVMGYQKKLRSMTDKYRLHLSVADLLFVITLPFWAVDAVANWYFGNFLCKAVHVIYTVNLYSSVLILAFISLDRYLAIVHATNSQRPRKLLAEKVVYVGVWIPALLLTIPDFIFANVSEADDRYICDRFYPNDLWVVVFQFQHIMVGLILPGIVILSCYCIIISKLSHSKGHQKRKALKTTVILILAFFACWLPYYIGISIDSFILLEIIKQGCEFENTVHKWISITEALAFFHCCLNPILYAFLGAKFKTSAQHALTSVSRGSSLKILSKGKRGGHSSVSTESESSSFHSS
Sequence of CXCR4 and CD4 co-expressed on cells (P61073 whole entry, chain 1 of 2, other chains not shown): as the sequence (P61073 whole entry) above

B1: IL23R#19-CD4#8 (bispecific antibody)
chain: EVQLVESGGGLVQPGGSLTLSCVASGRTFSTDVMGWFRQAPGKEREFVAAHRTSGISTVYAASVKGRFTISRDNAKNTVYLGMKSLKPEDTAVYVCAAGSDASGGYDYWGQGTLVTVSSGGGGSGGGGSGGGGSGGGGSGGGGSGGGGSGGGGSEVQLVESGGGSVQPGGSLTLSCGTSGRTFNVMGWFRQAPGKEREFVAAVRWSSTGIYYTQYADSVKSRFTISRDNAKNTVYLEMNSLKPEDTAVYYCAADTYNSNPARWDGYDFRGQGTLVTVSS
notes: also called BI#42; T023200042
What does the source list for B1?
IC50, IL-17 release PBMC D840 [1]: 58.9 nM; fold ctrl, IL-17 release PBMC D840 [1]: 1.7 fold; binding result [2]: binds

B2: 281F12-25GS-03F11 (bispecific antibody)
chain: EVQLVESGGGLVQAGDSLRLSCAASGRAFSRYAMGWFRQAPGKEREFVAAIGWGPSKTNYADSVKGRFTISRDNAKNTVYLQMNTLKPEDTAVYSCAAKFVNTDSTWSRSEMYTYWGQGTQVTVSSGGGGSGGGGSGGGGSGGGGSGGGGSEVQLVESGGGSVQPGGSLTLSCGTSGRTFNVMGWFRQAPGKEREFVAAVRWSSTGIYYTQYADSVKSRFTISRDNAKNTVYLEMNSLKPEDTAVYYCAADTYNSNPARWDGYDFRGQGTQVTVSS
notes: also called CXCR4#2-25GS-CD4#8
Does B2 bind [3]?
Result: binds

And the “IC50, HIV-1 NL 4.3(X4) in MT-4” value [4]?
Its value is 0.21 nM.

What about the “IC50, HIV-1 NL 4.3(X4) in PBMC” value [4] of the same binder?
Its value is 0.12 nM.

What about the “IC50, HIV-1 NL 4.3 (X4) in U87” value [4] of the same binder?
Its value is 2.67 nM.

B3: IL12Rb2#2: 135A07 (VHH)
VHH: EVQLVESGGRLVQAGDSLRLSCAASGRTFTSYRMGWFRQAPGKEREFVSALRWSSGNIDYTYYADSVKGRFSISGDYAKNTVYLQMNSLKAEDTAVYYCAASTRWGVMESDTEYTSWGQGTLVTVSS
notes: also called LG135A07; IL12Rβ2#2
Which “fold difference in KD and ligand competition between the family members” value (IL12Rβ2-Fc) does the source give for B3 here?
The value was 3.5 fold.

B4: 281F12-55A01 (4CXCR281F12(Q108L)-35GS-A0110055A01) (bispecific antibody)
chain: EVQLVESGGGLVQAGDSLRLSCAASGRAFSRYAMGWFRQAPGKEREFVAAIGWGPSKTNYADSVKGRFTISRDNAKNTVYLQMNTLKPEDTAVYSCAAKFVNTDSTWSRSEMYTYWGQGTLVTVSSGGGGSGGGGSGGGGSGGGGSGGGGSGGGGSGGGGSEVQLVESGGGSVQAGGSLRLSCTTSGRALNMYVMGWFRQAPGNEREFVAATSSSGGSTSYPDSVKGRFTISRDNAKNTVYLQMNSLKPEDTAAYRCAASPYVSTPTMNILEEYRYWGQGTLVTVSSAAAEQKLISEEDLNGAAHHHHHH
notes: the entry carries a c-myc-His6 tag; also made as Flag3-His6-tagged protein; also called CXCR4#2-CD123#2; BI#3/17
With B4 as the binder, how does the “Fold inc. vs anti-CXCR4 building block, Jurkat E6-1” value [5] read?
The value was 1.13 fold.

And the “Fold inc. vs anti-CXCR4 building block, MOLM-13” value [5]?
The value was 10.9 fold.

What about the “IC50, CXCL-12 induced chemotaxis, Jurkat E6-1” value [5] of the same binder?
Its value is 86 nM.

And the “IC50, CXCL-12 induced chemotaxis, MOLM-13” value [5]?
Its value is 7.85 nM.

Does B4 bind [6]?
Result: binds

B5: 03F11 (CD4#8, Table 10) (VHH)
VHH: EVQLVESGGGSVQPGGSLTLSCGTSGRTFNVMGWFRQAPGKEREFVAAVRWSSTGIYYTQYADSVKSRFTISRDNAKNTVYLEMNSLKPEDTAVYYCAADTYNSNPARWDGYDFRGQGTQVTVSS
B5 was tested. Which “IC50, HIV-1 BaL(R5) in PBMC” value [7] did it give?
The value was 610 nM.

— US20220242958A1 (published 2022)
